From the supplement of paper PMC10567573

B1: HDAC6 (parent)
chain: QEGLLDRCVSFQARFAEKEELMLV

Variants of: B1
Assay: protein stability index of a GFP-peptide fusion (GPS, HEK-293T) (PSI 1-6); higher = more stable
Settings: c terminus: a fixed tail appended
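Note: lentivirally expressed fusions sorted by FACS into six bins by GFP to DsRed ratio, PSI derived from sequencing read proportions per bin multiplied by bin number.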

Point of comparison: QEGLLDPCVSFQARFAEKEELMLV, protein stability index 2.56. Against it:
- GEGLLDRCVSFQARFAEKEELMLV — lower, 1.51
- TEGLLDRCVSFQARFAEKEELMLV — lower, 1.77
- WEGLLDRCVSFQARFAEKEELMLV — lower, 1.47
- LEGLLDRCVSFQARFAEKEELMLV — lower, 2.33
- MEGLLDRCVSFQARFAEKEELMLV — lower, 1.94
- REGLLDRCVSFQARFAEKEELMLV — lower, 1.63
- HEGLLDRCVSFQARFAEKEELMLV — lower, 1.54
- YEGLLDRCVSFQARFAEKEELMLV — lower, 1.25
- CEGLLDRCVSFQARFAEKEELMLV — lower, 1.39
- FEGLLDRCVSFQARFAEKEELMLV — lower, 1.18
- DEGLLDRCVSFQARFAEKEELMLV — lower, 1.85
- VEGLLDRCVSFQARFAEKEELMLV — lower, 1.54
- KEGLLDRCVSFQARFAEKEELMLV — lower, 1.39
- NEGLLDRCVSFQARFAEKEELMLV — lower, 1.91
- EEGLLDRCVSFQARFAEKEELMLV — lower, 2.51
- AEGLLDRCVSFQARFAEKEELMLV — lower, 1.94
- SEGLLDRCVSFQARFAEKEELMLV — lower, 2.34
- IEGLLDRCVSFQARFAEKEELMLV — lower, 2.48
- PEGLLDRCVSFQARFAEKEELMLV — lower, 2.13
- QEGLYDRCVSFQARFAEKEELMLV — lower, 1.79
- QEGLWDRCVSFQARFAEKEELMLV — lower, 1.58
- QEGLVDRCVSFQARFAEKEELMLV — lower, 2.06
- QEGLRDRCVSFQARFAEKEELMLV — lower, 1.78
- QEGLQDRCVSFQARFAEKEELMLV — lower, 1.56
- QEGLKDRCVSFQARFAEKEELMLV — lower, 1.72
- QEGLSDRCVSFQARFAEKEELMLV — lower, 1.9
- QEGLMDRCVSFQARFAEKEELMLV — lower, 1.73
- QEGLGDRCVSFQARFAEKEELMLV — lower, 1.71
- QEGLTDRCVSFQARFAEKEELMLV — lower, 1.87
- QEGLDDRCVSFQARFAEKEELMLV — higher, 2.62
- QEGLEDRCVSFQARFAEKEELMLV — higher, 3.01
- QEGLFDRCVSFQARFAEKEELMLV — lower, 1.33
- QEGLHDRCVSFQARFAEKEELMLV — lower, 1.67
- QEGLADRCVSFQARFAEKEELMLV — lower, 1.87
- QEGLPDRCVSFQARFAEKEELMLV — lower, 1.83
- QEGLCDRCVSFQARFAEKEELMLV — lower, 1.34
- QEGLIDRCVSFQARFAEKEELMLV — lower, 2.07
- QEGLNDRCVSFQARFAEKEELMLV — lower, 2.36
- QLGLLDRCVSFQARFAEKEELMLV — lower, 1.69
- QVGLLDRCVSFQARFAEKEELMLV — lower, 2.44
- QFGLLDRCVSFQARFAEKEELMLV — lower, 1.77
- QSGLLDRCVSFQARFAEKEELMLV — lower, 2.5
- QRGLLDRCVSFQARFAEKEELMLV — lower, 1.95
- QYGLLDRCVSFQARFAEKEELMLV — lower, 1.8
- QTGLLDRCVSFQARFAEKEELMLV — lower, 2.14
- QWGLLDRCVSFQARFAEKEELMLV — lower, 1.57
- QKGLLDRCVSFQARFAEKEELMLV — lower, 1.94
- QNGLLDRCVSFQARFAEKEELMLV — lower, 1.28
- QDGLLDRCVSFQARFAEKEELMLV — lower, 1.83
- QGGLLDRCVSFQARFAEKEELMLV — lower, 2.52
- QCGLLDRCVSFQARFAEKEELMLV — lower, 2
- QPGLLDRCVSFQARFAEKEELMLV — the same, 2.56
- QIGLLDRCVSFQARFAEKEELMLV — lower, 2.12
- QAGLLDRCVSFQARFAEKEELMLV — lower, 1.12
- QMGLLDRCVSFQARFAEKEELMLV — lower, 1.62
- QQGLLDRCVSFQARFAEKEELMLV — lower, 1.21
- QHGLLDRCVSFQARFAEKEELMLV — lower, 1.96
- QEGLLDMCVSFQARFAEKEELMLV — lower, 1.92
- QEGLLDWCVSFQARFAEKEELMLV — lower, 1.83
- QEGLLDSCVSFQARFAEKEELMLV — higher, 3.14
- QEGLLDVCVSFQARFAEKEELMLV — lower, 1.71
- QEGLLDDCVSFQARFAEKEELMLV — lower, 1.69
- QEGLLDTCVSFQARFAEKEELMLV — lower, 1.73
- QEGLLDFCVSFQARFAEKEELMLV — higher, 2.59
- QEGLLDECVSFQARFAEKEELMLV — lower, 1.93
- QEGLLDLCVSFQARFAEKEELMLV — higher, 2.69
- QEGLLDHCVSFQARFAEKEELMLV — lower, 1.7
- QEGLLDICVSFQARFAEKEELMLV — higher, 2.91
- QEGLLDACVSFQARFAEKEELMLV — higher, 2.74
- QEGLLDQCVSFQARFAEKEELMLV — lower, 1.94
- QEGLLDYCVSFQARFAEKEELMLV — lower, 1.66
- QEGLLDKCVSFQARFAEKEELMLV — lower, 1.43
- QEGLLDNCVSFQARFAEKEELMLV — lower, 2.13
- QEGLLDGCVSFQARFAEKEELMLV — lower, 2.17
- QEGLLDCCVSFQARFAEKEELMLV — lower, 2.32
- QEGILDRCVSFQARFAEKEELMLV — lower, 1.79
- QEGELDRCVSFQARFAEKEELMLV — lower, 1.85
- QEGPLDRCVSFQARFAEKEELMLV — lower, 2.04
- QEGHLDRCVSFQARFAEKEELMLV — lower, 1.44
- QEGVLDRCVSFQARFAEKEELMLV — lower, 1.9
- QEGQLDRCVSFQARFAEKEELMLV — lower, 1.99
- QEGCLDRCVSFQARFAEKEELMLV — higher, 2.73
- QEGYLDRCVSFQARFAEKEELMLV — lower, 2.01
- QEGRLDRCVSFQARFAEKEELMLV — lower, 1.79
- QEGGLDRCVSFQARFAEKEELMLV — lower, 1.43
- QEGFLDRCVSFQARFAEKEELMLV — lower, 2.47
- QEGTLDRCVSFQARFAEKEELMLV — lower, 1.91
- QEGALDRCVSFQARFAEKEELMLV — lower, 1.62
- QEGKLDRCVSFQARFAEKEELMLV — lower, 1.94
- QEGWLDRCVSFQARFAEKEELMLV — lower, 1.5
- QEGMLDRCVSFQARFAEKEELMLV — lower, 2.19
- QEGDLDRCVSFQARFAEKEELMLV — lower, 1.75
- QEGNLDRCVSFQARFAEKEELMLV — lower, 2.06
